This passage reports protein production results from a protein production outcome set (Wang et al. 2014).

The data set is described as follows: label from the status in PepcDB records.
For the sequence “MFKVLQCLTIDHDYRYTAAAVVVCMLGSFVTMRLFSKARLATGLQKVNWLFLAGVNGGAAIWTTHFVAMLGYVAAGDVGYDPYLTGLSLLIAITTTTAGFGISAYGGRSVLVEAGGTILGLGIAAMHYTGMAAYNVQGMIFWDQAYVIASLVLGSVLGAIAVNRIARPLNRFCQYSAVAFLILAIASMHYTGMASMSFAFDPRIIIPENLLPPAIMGGGAIAVTLLLLALGLSTYVIDAQSTQQAVARYRHLSLHDPLTGIPNRAAFIEHLNRRTRHISMGAHTALLSIDLDRFKEINDVHGHAAGDAVLRAIADRASSVLKAGEFLARMGGDEFVAMTHSYYTRADGAEFAQRLIEQISKPVEWNGQTFSVGASVGISVRNTGSIDADTLMAQADVAMYRAKSATSDTICFYDKSMDEAARARNALAIAMRSGLANNEFELYYQQQNDTKSGSIVGFEALLRWKHPERGMVSPVEFIPIAEQTGFIVELGEWVLREACAQAARWKKSLAIAVNVAPQQLADNDFPDKVERILAETGLAPERLELEITEGSIIADHRHALVTIRKLKSLGVKIAMDDYGTGYSSLSTLQSFPFDKIKIDRAFIDGLSTNVQSEAIVRSTLILAHSLNIPVLAEGVETKAHIEFLRREGCLQVQGFFFGKPGPLTSIANLVDDTFLSAEDETEEASGRRYIKVVR”, the protein production entry was “failed”.

Turning to “MFVIGIPTLNEADNISRLVKQIDEYAVNLGKEIIIINSDSKSTDGTPQIFLETKTYNTKVSIVSEAKGKGYNVRNIFEYAINHVPNFSGLILIDGDVVSMKKMWLEKMFIAIESGNDLIIPNYARKSFEGNATNHFIYPMLVKIFKRDMPYQCISGDFGFSRGLIKDLTLKCNWHKYTLGYGIDIFLTLTAILKSYKIKEIDLQSKIHKKSFEKIEKIFLEVSQSFFETINDNSLNQDKLRLNINFESHSRQFIKSSDILSSNDIENLKLRALFLLQEEKQYLHGLSEVEWDGILSNTINNIYRYSSEEHSLYLLPLYLLRVYNYLKYN”, the protein production entry was “failed”.

Turning to “MSDWQMAEAWTLEEAIANIQQTEDTGKRYYAAWWFGKFRVQDERAVNALLAALKDETDRSPDGGYPLRRNAAKALGKLGNLAAVQPLIESLESPDYYVRESAAQSLEMLGDRQAIPALQALLAGGVAAAVKAEGKPHLVQPYEAVIEALGTIGATAAIAEIEPFLDHEFAKIRYAALRALYQLTQEAHYAEQLMEALNGNQLQLRRSALLDLGAIGYVPAGQAIAKAYAENSLKLISLKGILESHLQRTAETLDADGLQLLELMDSLL”, the protein production entry is given as “failed”.

As for “MKINKIDTRHGTANQSTFSHGNCLPYTGFPWGMNYFSPSTGAARGAWWFHPEDRTFEGYRITHQPSPWMGDFSHLTMTPVAGPLPETSLWHTVSSYRPEESTFNPTQLKITQLRYQITSQLIPSMYGGILSMNYQNLSLKDNGLMLHLPGSYELQQLDDYSLELSIINFAGCEDENFTFYLKFTADQPFVLSGNLSDEDSSVRLDFKAAKQVQIHFATSFISKEQAALNLEREQDNSAETYLENAESAWNNLFSRIEIEHHNQQEVSTFYHNLYRSFLFPQTFYEFDQEHQKIHYDTSSKTVKKGPLYTNNGFWDTFRTVYPLYSLIAVDEYGDMLEGFLNSYRATGFLPKWLSPDERGLMPGTLIDAVIADAASKNIRPDLMPEFLEAMKKGATSQSENSNYGRRGTKDYLKLGYVPLTHHESVNHTLDYAFSDYCISQVAKQTGDKEISDFYAHQAKDYQNIFDSETGFMRAKDADGNFRADFLDIRWGRDYAEGSAWQTSWSVLHDFAGLIKLHGSRENFENKLIELCNQRPNFNVEGYGFEIHEMSEMAAIEFGQVAISNQPSFHYPYLFSYIGKPWMATPLIKNLLTETFNDSPKGYPGDEDNGTMAAWYIFSSLGFYPVTAASNQYVLGIPLWDKARINLSSGQQLTILAEPNAPQQVFVNQITFTDKKVNDTFIKHEELIKGGTLKFDLGIVPNPLKYTNEQLPYSLTEN”, the protein production entry is “failed”.

Consider “MSHTKIMSTDQLETQITELDNLPEHREIVTFMRRSAPLNTSQRSALEQYQDLILEYPVGDLRQHFEHPEHPLTVEIGFGMGRSLVLMAKAHPERNFVGIEVHVPGIAQCVYEAGMAGLKNLRVLDADAIQVLREMPDNSINCVQLYFPDPWQKKRHFKRRFVIHERMQLVEQKLELGGTFHAATDWEPYAEWMLDVLDNRPALENLAGKGNSYPRPEWRPQTKFERRGIESGHKINDFIFKKIGS”, for which the protein production result is listed as “failed”.

In the case of “MKISPLCPSCLLGRVYYEAKLVTDDEDLISQCVDESLKILAENYSSAPINAHLATRIHRRVYEILGVEDPYAEVKARANEVARQVLPLAKEIVEGSDDPFKTAVIVSIVGNNFDYGVQGHKVVEEEFRDFLKRKVQEGLKINDTERIKELSSGKVVYLTDNAGEIFFDTLLMKEIKRRCEKLTAVVRGRPIISDATIEDARLARVDKIADELLTNGKGAIGIIMDELPDETRKALEEADLIVAKGMANYECLSDGSLKPIAFLLTAKCEPVARDIGVNVGDMVAKVVE”, the protein production result is recorded as “not failed”.

With “MTIAHISDLHFGRIADSGVVEALLDEINAAGIDLVAVSGDLTQRARPAEYRAARNLLDALGPPTLVVAGNHDVYPWWRPLKRLRTPLERYRQFITEDLAPTFEAGGVAALGLTSAYGPSIKGGRIGPADRAAMRAFFSGTGDDRFKVLVVHHQLHPTAIGPISPHPVARQAQQTLAVAGEVGIDLILCGHLHISAIQPLEIIPGTPRIVVASAGTATSNRWREPTGPINFYNVVSVEPEAFSVEERRYVPDEGRFVRDGVTRFDHAG”, the protein production result was “failed”.

For “MVLSEIFRGNNEVREAARAGVQIDTVSVASASDAASAADGSGKITGAIRPSAVAGSFYPADRTALKQLINQQLDYGRKLLQQLEPTLPAGVPRAVIVPHAGYIYSGTAAALAYALLERGRGSVTRAVIVGPTHRVAVRGVACSTAAAFETPLGTVPVDIAAERKALGLSVNEPLRSGTHARPGAPAPAMIVNAPTHAQEHAVEVQIPFLQTVLGPDLTIVPLNAGDATPQEVGDVLRALWGGPETVIVISSDLSHYHPHEVARALDDQTIADIAALHLPIHPRRACGAYPINGLLDVLKGRKDMRLFELGCSTSGDDGVVALAGQPRPAMRDADEPVVGYVSFAAWESKPEADALAGADDLGTSGTPSHGEVLLKLARAAIRERLHIEHPTAADSTASILAANPWLNEPGACFVTLTEGGRLRGCIGSLVAHRSLGKDVAEHAVDAATRDPRFTPVTAAEYPLLNVEVSVLGEPEPITVNSCDADSRGTGSKTATLASLQSGPQTDAVKRDGSNVERPVRSRTELEEVLRPGKDGLILADRRGRSATFLPQVWDELPDPHDFVAHLLAKAGIRPSYDWTDSEIDCQRYEVTAYAEH”, the protein production result is “failed”.

“MAKRVFIGATGQNCGKTTMSVSLMHLARQKYDRVGFIKPIGPKIEGYNGLTVDMDAILMARTFGLEEDLPLMNPVSLHKNFTRDFLSGKLDCNVLKTKILEAFEILDKKYDFLIIEGAGHGGVGSVIGLSNACVAHTLNAPVIIVTDSGIGSSIDAVHLNLALYEKEDADVRMLLVNKLRADKRESILSFLGKGFPGRPLKISGGFNYSPILANPTLSHIGKLLNLPVHGDPDGQSRIIHHIHLGAASAQRVVDALQESTLIVITSSRDELIVTLSSLYHIPAFREKIVGLVIAGHIPASEISQQILDDSNIPYIRVHDSTANVFTTLMEDVAKITAEDQEKLNWIRANAENEIDFEAIDALLLEHHHHHH”: the protein production result is on record as “failed”.

With “MTITSNISVQNDNLVVQGKTILTKIPDNIILTPVTGNGFVSGSFIGATFEQSKSLHVFPIGVLEGLRFMCCFRFKLWWMTQRMGSCGKDIPLETQFMLLESKDEVEGNGDDAPTVYTVFLPLLEGQFRAVLQGNEKNEIEICFESGDKAVETSQGTHLVYVHAGTNPFEVIRQSVKAVERHMQTFHHREKKKLPSFLDWFGWCTWDAFYTDVTAEGVDEGLKSLSEGGTPPKFLIIDDGWQQIENKEKDENCVVQEGAQFATRLVGIKENAKFQKSDQKDTQVSGLKSVVDNAKQRHNVKQVYAWHALAGYWGGVKPAASGMEHYDSALAYPVQSPGVLGNQPDIVMDSLAVHGLGLVNPKKVFNFYNELHSYLASCGIDGVKVDVQNIIETLGAGLGGRVSLTRSYQQALEASIARNFTDNGCISCMCHNTDGLYSAKQTAIVRASDDFYPRDPASHTIHIASVAYNSLFLGEFMQPDWDMFHSLHPTAEYHAAARAVGGCAIYVSDKPGNHNFDLLRKLVLPDGSVLRAKLPGRPTRDCLFADPARDGIRCWLVQGNEEEPDP”, the protein production result is “failed”.

As to “GSSGSSGSTVVMADVSQYHVNHLVTFCLGEEDGVHTVEDASRKLAVMDSQGRVWAQEMLLRVSPSQVTLLDPVSKEELESYPLDAIVRCDAVMPRGRSRSLLLLVCQEPERAQPDVHFFQGLLLGAELIREDIQGALQNYRSGRGERSGPSSG”, the protein production result is on record as “not failed”.

Consider “MIFKKEPKRYTVEDTIPYLRLLKSGICQLDEKHFSKSIAFQDINYQLALDEDRDLIFNQFANFLNSFDPSISIEFSYVNQLGRNEEMKSAIQIPDKKDGFDDIRFEFREMLKSQIVKGNNGLKKSKYVTFTVEADNLEQATSKLERLEIDILSNLKSMGVRAESLNGEERLKILHDVLNPNKTFEFSYKDLKKRESTKTYIVPDEFNFTPSRYFKFGKFIGATSHFQILASELSDRMLSEFLDIDDNINISFHIRAIDQSEAIKMVKRKNTDIDKMKIEENKKAVRSGYDMDILPSDLITYGEDVKSLLKDLQTRDERMFVVSIVFMNFARTVQKLDNTIAQISSIANKHNCKLKRLDHSQEQGLVSMLPLGVNKIEIDRGLTSSSTAVFMPFTTEELFINSSNSLYYGLNALSHNLIMADRKKLKNPNGLILGTPGSGKSFSAKREMANAILVTDDDVIICDPEGEYGNLVRQFKGEVIKVSSKSKDYLNPLDINMNYGDGDAPLKDKANFIMSMLELVVGGSGLTAEEKSVIDRCLPKIYEKYFEHPTPDNMPILQDLYDMLKGQEEKVGKKLATEMEIYVSGSLNVFNHRSNVDLNKKLLCFDIKELGSQLKKIGMLVIQDQVWNKVSQNRGNKATRYYIDEFHLLLKDEQTASYSVEIWKRFRKWGGIPTGITQNVKDLLMSKEIENIFDNTDFVLMLNQASGDREILARKLKISLPQLRYVTNSNEGEGLLFFGNTIVPFLDKFPKDTILYQKMTTKPEEVRLEHHHHHH”, for which the protein production result is “not failed”.

With “MTPSRDTKIILEGFCHPALNNPKPISVRFEKSILMVTGVNAGGKTMLLKSILSSAFLARYLIPMPILASKSSIGSFKGIAAVLDDPQSAKNDISTFAGRMLSFERFFKERGFLVGVDEIELGTDSDEAASLFKVILEQLIKRDFKIIITTHHKRLAALMAANEEVELMAALYDEKRQMPTFSFLQGTIGKSYAFETAERYGIPPFVIKEAKEVYGQDKEK”, the protein production entry is on record as “failed”.

On to “MSLIYQIAKEFDFCYGHRVWSQELNPDFSLDPCLSCRHLHGHQGKVIVHLESRELQRGMVTDFAHLNWFKRFIDEVLDHRFIIDIDDPLFPTLLPHFADKSALVWMEEGYARVDFERIKGESSPILELYESFVVVRFVPTSESIASWLLELLRSRIQPLGVKVSSVEFLETPKSRARVYNEGHHHHHH”, for which the protein production entry is listed as “not failed”.

Take “PGEAVGVTIFEMALDELAEKAGLDPLELRLRNIPEEDPETGKPFTSHMLAEALRDGADRFGWSDRRAPGERRQGEWLIGMGMASAVRVNMLHKARVRVTLTGEGALVESSMTDIGTGTYTILTQIVAEMLGLAPDRVRTVLGDTDLPEGSGSGGSIGAASNGSAAFLACEEIRRQIAAGMGCPEEELTLKDGRATCGNRTRDLAEIVTQPLSAEGHFEPGKALKGVRSSTFGAHFAEVAVNEITGEVRVRRMLGAFAAGRILNEKTARSQCLGGMTFGIGMALMEEMVHDRRFGQVVSRDLANYHIPAHADVPALEVHFLEERDSYGGTLQAKGIGELGICGSGAAVLNAIHNACGVRVRDLPATPDKVLDGL”: the protein production result is given as “failed”.
